Experimental data reported in US20110142849A1 (IRM, published 2011).

Assays:
Experiment in all cases: specificity ELISA on coated antigen (88 ng per well), antibody at 2 µg/mL, ABS650
hTrkB = target: T1, hTrkB (human, UniProt Q16620)
T1 construct: panel antigen of the specificity ELISA
Procedure: (§1) For specificity ELISAs on purified human and mouse IgGs, a 384-well plate was coated with a panel of purified human or mouse antigens at 88 ng per well and incubated overnight at 4° C. The plate was blocked and washed as described above, then 22 μL of purified mouse or human anti-PCSK9 antibody diluted to 2 μg/mL in PBS was added to each well. The plate was incubated for 1 hr at 37° C. then washed with PBST. Anti-mouse Fc antibody (Jackson ImmunoResearch Labs #115-035-071) or anti-human kappa antibody (Sigma #A7164) conjugated to HRP was diluted 1:5000 in PBS (25 μL) and added to each well. The plate was incubated for 1 hr at room temperature, then washed and developed as described above.
(§2) In order to test whether the antigen specificity of the parental mouse antibody LFU720 was retained in the final Humaneered™ IgGs, LGT209, LGT210 and LGT211, binding of the antibodies to a panel of human and mouse antigens (as well as human PCSK9) was tested in an ELISA assay.

hβ-Klotho = target: T2, hβ-Klotho (human, UniProt Q86Z14)
T2 construct: panel antigen of the specificity ELISA
T2 sequence (antigen, looked up): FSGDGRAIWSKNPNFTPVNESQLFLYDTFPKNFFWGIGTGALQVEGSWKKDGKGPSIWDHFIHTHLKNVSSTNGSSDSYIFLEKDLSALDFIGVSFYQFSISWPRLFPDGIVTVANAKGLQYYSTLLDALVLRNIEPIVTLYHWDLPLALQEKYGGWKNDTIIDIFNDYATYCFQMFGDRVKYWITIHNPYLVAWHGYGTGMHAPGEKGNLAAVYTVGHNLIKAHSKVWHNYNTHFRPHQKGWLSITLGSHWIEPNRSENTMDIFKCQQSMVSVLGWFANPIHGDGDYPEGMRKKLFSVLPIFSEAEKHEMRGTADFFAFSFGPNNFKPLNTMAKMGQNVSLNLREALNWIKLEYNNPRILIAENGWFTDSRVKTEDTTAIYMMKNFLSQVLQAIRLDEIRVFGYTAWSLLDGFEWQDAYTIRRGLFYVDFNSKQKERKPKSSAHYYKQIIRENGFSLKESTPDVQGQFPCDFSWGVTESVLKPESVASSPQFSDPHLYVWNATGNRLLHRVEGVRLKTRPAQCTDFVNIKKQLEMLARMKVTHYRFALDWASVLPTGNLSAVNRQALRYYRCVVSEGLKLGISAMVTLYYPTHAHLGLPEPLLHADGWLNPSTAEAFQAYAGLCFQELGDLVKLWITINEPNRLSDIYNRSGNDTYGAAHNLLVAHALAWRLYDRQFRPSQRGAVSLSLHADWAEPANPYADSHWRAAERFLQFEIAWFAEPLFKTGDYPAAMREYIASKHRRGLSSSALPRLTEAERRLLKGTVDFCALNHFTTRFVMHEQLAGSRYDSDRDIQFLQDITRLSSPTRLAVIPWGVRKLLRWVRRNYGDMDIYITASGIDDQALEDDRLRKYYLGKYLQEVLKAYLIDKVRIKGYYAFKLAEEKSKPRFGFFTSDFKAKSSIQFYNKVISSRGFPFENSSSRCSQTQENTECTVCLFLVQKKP
Procedure: as §1, §2

hNotch-3 NRR = target: T3, hNotch-3 NRR (human, UniProt Q9UM47)
T3 construct: panel antigen of the specificity ELISA
T3 sequence (antigen, looked up): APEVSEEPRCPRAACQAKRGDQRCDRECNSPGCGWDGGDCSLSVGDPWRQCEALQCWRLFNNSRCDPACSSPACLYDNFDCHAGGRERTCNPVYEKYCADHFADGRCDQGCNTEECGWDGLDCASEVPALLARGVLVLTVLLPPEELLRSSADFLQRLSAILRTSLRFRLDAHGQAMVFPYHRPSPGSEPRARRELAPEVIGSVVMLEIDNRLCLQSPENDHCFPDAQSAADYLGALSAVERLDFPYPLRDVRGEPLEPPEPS
Procedure: as §1, §2

hDDR1 = target: T4, hDDR1 (human, UniProt Q08345)
T4 construct: panel antigen of the specificity ELISA
Procedure: as §1, §2

hRspo-2 = target: T5, hRspo-2 (human, UniProt Q6UXX9)
T5 construct: panel antigen of the specificity ELISA
Procedure: as §1, §2

hFGFR4 = target: T6, hFGFR4 (human, UniProt P22455)
T6 construct: panel antigen of the specificity ELISA
T6 sequence (antigen, looked up): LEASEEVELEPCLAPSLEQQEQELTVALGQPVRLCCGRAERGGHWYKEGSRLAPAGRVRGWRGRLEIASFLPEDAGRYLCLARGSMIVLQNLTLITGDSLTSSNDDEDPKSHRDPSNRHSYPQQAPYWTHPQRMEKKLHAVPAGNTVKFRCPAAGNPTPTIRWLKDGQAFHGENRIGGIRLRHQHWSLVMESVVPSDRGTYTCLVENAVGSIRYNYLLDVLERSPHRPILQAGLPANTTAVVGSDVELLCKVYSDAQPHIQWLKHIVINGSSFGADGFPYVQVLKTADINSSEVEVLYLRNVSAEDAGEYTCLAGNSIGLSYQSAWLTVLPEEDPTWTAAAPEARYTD
Procedure: as §1, §2

hIL-12RB1 = target: T7, hIL-12RB1 (human, UniProt P42701)
T7 construct: panel antigen of the specificity ELISA
Procedure: as §1, §2

hGITR = target: T8, hGITR (human, UniProt Q9Y5U5)
T8 construct: panel antigen of the specificity ELISA
T8 sequence (antigen, looked up): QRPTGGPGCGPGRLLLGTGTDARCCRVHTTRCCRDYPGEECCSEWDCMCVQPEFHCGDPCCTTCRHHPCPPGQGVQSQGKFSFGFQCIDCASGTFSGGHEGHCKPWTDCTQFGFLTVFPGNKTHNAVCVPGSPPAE
Procedure: as §1, §2

Measured: binding result

T1 sequence (Q16620 32-430 limits assumed): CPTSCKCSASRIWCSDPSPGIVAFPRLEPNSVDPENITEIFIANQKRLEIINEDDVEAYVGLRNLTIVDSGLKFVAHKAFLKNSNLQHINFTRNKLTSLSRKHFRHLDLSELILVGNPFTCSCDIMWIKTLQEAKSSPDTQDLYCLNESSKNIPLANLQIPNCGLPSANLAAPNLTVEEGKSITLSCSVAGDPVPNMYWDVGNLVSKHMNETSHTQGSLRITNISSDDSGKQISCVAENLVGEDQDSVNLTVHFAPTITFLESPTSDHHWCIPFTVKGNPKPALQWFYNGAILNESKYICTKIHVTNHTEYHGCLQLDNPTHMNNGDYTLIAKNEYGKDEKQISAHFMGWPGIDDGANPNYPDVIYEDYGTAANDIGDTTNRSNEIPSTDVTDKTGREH
T5 sequence (Q6UXX9 22-243 limits assumed): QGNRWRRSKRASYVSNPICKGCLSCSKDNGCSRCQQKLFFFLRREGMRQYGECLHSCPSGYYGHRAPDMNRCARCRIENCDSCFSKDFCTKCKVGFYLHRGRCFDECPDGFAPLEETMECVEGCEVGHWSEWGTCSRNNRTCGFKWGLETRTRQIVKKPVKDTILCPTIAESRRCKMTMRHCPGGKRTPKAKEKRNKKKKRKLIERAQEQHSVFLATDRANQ
T4 sequence (Q08345 21-416 limits assumed): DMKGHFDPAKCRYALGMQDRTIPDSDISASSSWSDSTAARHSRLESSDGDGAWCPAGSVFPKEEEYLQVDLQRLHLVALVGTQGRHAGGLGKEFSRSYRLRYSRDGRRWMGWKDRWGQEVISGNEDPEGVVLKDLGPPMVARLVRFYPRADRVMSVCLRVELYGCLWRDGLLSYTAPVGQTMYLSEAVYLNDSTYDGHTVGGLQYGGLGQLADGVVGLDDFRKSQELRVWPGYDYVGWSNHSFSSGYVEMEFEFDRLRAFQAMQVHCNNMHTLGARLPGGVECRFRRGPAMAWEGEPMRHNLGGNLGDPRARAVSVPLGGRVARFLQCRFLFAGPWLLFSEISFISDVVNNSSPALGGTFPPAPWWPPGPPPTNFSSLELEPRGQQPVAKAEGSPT

B1: NVP-LFU720 (antibody, V domains shown)
VH: EVQLQQSGAELMKPGASVKLSCTASGFNIKDMYMSWVRQRPEQGLEWIGRIDPANGHTNYDPKFQAKATITTDTSSKTAYLHLSSLTSEDTAVYYCARSYYYYAMDYWGQGTSVTVSS
VL: QIVLTQSPAIMSASPGEKVTMTCSASSSVSYMHWYQQKPGSSPRLWIYLTFNLASGVPARFSGSGSGTSYSLSISSMEAEDAATYYCLQWSSDPPTFGSGTKLEIK
notes: Murine anti-human Pcsk9 IgG1-kappa monoclonal antibody from a hybridoma; also called 5P20; NVP-LFU720-AX-1
no binding (tested: 2 µg/mL): all assays above

B2: NVP-LGT211 (antibody, human IgG1, V domains shown)
VH: QVQLVQSGAEVKKPGASVKVSCKASGYTFSTMYMSWVRQAPGQGLEWMGRIDPANEHTNYAQKFQGRVTMTRDTSISTAYMELSRLTSDDTAVYYCARSYYYYAMDYWGQGTLVTVSS
VL: QIVLTQSPATLSVSPGERATLSCRASQSVSYMHWYQQKPGQAPRLLIYGVFRRATGIPDRFSGSGSGTDFTLTIGRLEPEDFAVYYCLQWSSDPPTFGQGTKLEIKR
notes: Silent human IgG1 kappa; also called pSR74 (Vh) + pJG10 (Vk); pSR074 + pJG10
no binding (tested: 2 µg/mL): all assays above
